Data from patent EP4556028A1.
pKd: −log10 of the molar value.

Molecular target: recombinant SARS-CoV-2 spike RBD, WH-1 (Sino Biological 40592-V08B) (SARS-CoV-2 (wild type, WH-1)) (UniProt P0DTC2)
Assay: SPR (Biacore T200), minibinder immobilised, monomeric RBD as analyte

Substance | pKd | fold higher affinity than AHB2
recombinant minibinder AHB2 with N- and C-terminal Ser/Gly extensions and C-terminal Cys (designed binder) | 10.30 | –
recombinant minibinder LCB1 with N- and C-terminal Ser/Gly extensions and C-terminal Cys (designed binder) | 11.30 | 10 fold
